Paper PMC5679713 (Structure (London, England : 1993), 2017)
Values belong to the molecule of their own block, whether it stands above or below them. Where no end group is shown, it is not given here. Me3 = trimethyl-lysine

Legend:
PPS-PHD = PPS-PHD (Drosophila melanogaster, UniProt Q9VG78); experiment: 1H,15N HSQC NMR titration, PPS-PHD; type: binding; settings: pH 6.9, H3 peptide residues 1-12, 298K
[1] = biological target: PHD finger of Drosophila PPS (PPS-PHD), wild type, as used in NMR and fluorescence (Drosophila); experiment: NMR titration
[2] = biological target: PHD finger of Drosophila PPS (PPS-PHD), wild type, as used in NMR and fluorescence (Drosophila); experiment: other fluorescence titration
[3] = biological target: PHD finger of Drosophila PPS (PPS-PHD), wild type, as used in NMR and fluorescence (Drosophila); experiment: other fluorescence titration; remark: listed apart in the source
[4] = biological target: PHD finger of Drosophila PPS (PPS-PHD), wild type, as used in NMR and fluorescence (Drosophila); experiment: other fluorescence titration; remark: listed apart in the source
[5] = biological target: T1, PHD finger of yeast Bye1 (Bye1-PHD), aa 47-134 (S. cerevisiae, UniProt P36106 47-134); experiment: other fluorescence titration
T1 sequence (looked up): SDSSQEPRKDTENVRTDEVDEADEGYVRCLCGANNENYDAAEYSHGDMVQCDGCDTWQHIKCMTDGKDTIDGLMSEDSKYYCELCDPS

PPS-PHD, sequence (Q9VG78 1-2016): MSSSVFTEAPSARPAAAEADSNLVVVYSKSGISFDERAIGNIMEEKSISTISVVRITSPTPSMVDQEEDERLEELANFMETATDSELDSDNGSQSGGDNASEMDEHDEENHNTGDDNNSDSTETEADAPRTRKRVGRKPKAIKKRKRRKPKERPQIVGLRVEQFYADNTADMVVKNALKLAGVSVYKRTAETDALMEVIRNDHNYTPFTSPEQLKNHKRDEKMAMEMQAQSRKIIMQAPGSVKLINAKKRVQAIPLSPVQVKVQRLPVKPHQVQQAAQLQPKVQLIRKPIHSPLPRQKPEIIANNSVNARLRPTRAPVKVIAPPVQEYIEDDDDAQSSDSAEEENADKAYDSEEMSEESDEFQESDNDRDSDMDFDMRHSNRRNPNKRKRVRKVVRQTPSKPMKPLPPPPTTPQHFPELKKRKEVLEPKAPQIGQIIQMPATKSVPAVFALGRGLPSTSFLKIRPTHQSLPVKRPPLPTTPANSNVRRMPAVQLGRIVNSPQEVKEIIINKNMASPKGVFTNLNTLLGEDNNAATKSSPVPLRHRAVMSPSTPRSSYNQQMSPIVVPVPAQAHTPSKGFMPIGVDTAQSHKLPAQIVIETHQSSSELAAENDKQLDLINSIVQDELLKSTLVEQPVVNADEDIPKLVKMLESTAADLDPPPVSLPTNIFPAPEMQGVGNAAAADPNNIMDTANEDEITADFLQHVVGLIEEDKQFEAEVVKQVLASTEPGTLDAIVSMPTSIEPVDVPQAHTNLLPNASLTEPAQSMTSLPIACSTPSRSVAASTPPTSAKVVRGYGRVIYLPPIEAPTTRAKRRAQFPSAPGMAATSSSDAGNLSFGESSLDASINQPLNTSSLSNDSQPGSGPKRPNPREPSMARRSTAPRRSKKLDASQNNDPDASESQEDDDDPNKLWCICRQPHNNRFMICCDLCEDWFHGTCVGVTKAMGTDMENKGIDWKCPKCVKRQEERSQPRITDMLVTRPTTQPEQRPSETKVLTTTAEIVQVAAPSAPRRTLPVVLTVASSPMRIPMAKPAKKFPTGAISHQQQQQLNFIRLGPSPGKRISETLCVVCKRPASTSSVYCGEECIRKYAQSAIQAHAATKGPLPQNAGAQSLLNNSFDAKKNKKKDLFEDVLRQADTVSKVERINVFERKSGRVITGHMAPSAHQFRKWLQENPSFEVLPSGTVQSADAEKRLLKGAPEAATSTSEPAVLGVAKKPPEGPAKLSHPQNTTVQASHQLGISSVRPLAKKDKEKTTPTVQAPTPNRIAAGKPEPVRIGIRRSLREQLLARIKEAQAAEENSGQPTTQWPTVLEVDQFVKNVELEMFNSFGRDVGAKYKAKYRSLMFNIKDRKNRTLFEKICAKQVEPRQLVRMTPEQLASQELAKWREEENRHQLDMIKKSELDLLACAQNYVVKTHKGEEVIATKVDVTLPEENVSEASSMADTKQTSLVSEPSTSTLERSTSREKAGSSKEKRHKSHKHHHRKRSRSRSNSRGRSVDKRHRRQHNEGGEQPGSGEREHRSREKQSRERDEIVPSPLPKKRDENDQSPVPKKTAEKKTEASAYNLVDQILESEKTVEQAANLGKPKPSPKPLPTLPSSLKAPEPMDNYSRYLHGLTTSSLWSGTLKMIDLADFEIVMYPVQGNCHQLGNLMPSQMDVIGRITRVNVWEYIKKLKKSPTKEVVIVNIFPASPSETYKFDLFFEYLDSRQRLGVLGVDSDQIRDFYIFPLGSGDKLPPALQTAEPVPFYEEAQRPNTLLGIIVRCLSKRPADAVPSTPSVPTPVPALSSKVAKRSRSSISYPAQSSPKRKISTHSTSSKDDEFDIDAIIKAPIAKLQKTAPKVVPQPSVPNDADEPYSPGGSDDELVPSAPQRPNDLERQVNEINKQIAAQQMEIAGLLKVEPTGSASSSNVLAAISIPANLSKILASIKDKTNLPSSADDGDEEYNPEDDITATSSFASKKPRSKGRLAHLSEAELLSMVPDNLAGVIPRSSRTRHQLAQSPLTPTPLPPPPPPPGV

Molecule: H3K4me0: H3K4me0 peptide (1–12 aa), unmethylated histone H3 tail, Synpeptide
- Binding by NMR chemical shift perturbations (CSPs), in words (PPS-PHD): no CSPs in PPS-PHD were seen
- Recognition of unmethylated histone H3 tail, in words (PPS-PHD; NMR): does not recognize unmethylated histone H3 tail at all

Molecule: histone H3K4me3 peptide (residues 1-12 of H3) (from UniProt P68431 2-13)
- Kd [2]: 17 µM
- Kd [3]: 3.6 µM
- Kd [4]: 1.9 µM

Now from value to molecule:

- Kd [1]: 230 µM
Molecule: histone H3K4me1 peptide (residues 1-12 of H3) (from UniProt P68431 2-13)

- binding result [5]: binds
Molecule: ARTK(Me3)QTARKSTG (peptide, UniProt P68431 2-13, looked up) [histone H3K4me3 peptide (residues 1-12 of H3)]
